Among the data in PMC7046344 are other: myc/FLAG ratio values, retold here.

One assay has as its target Spn-F-FLAG (UniProt Q9V9Y9). Briefly: co-immunoprecipitation (IP anti-FLAG, IB myc, band ratio by ImageJ). The note with it: lysates of S2 cells co-expressing SpnF-FLAG and myc-Rab11; parent: 1.
In the next assay the target is T1, Spn-F-FLAG, Q9V9Y9.
T1 chain: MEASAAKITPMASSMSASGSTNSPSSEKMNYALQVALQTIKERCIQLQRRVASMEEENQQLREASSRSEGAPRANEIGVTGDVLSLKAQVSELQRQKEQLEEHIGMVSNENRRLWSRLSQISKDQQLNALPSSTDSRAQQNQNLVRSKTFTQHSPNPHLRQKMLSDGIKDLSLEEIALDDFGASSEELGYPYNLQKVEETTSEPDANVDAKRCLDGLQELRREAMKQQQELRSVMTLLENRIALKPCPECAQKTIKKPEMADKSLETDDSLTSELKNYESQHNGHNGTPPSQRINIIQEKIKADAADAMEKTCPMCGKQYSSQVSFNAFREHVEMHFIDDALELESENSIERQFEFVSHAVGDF
Described as above. As to conditions: chain shown with the change; lysates of S2 cells co-expressing SpnF-FLAG and myc-Rab11; parent: 1.

Take myc-Rab11 (from UniProt O18335) CA: in the assay with Spn-F-FLAG, the other: myc/FLAG ratio was 0.14.

B1: myc-Rab11, O18335 S25N (protein)
chain: MGAREDEYDYLFKVVLIGDSGVGKNNLLSRFTRNEFNLESKSTIGVEFATRSIEVDGKTIKAQIWDTAGQERYRAITSAYYRGAVGALLVYDIAKHLTYENVERWLRELRDHADQNIVIMLVGNKSDLRHLRSVPTDEAKLFAERNGLSFIETSALDSTNVETAFQNILTEIYRIVSQKQIRDPPEGDVIRPSNVEPIDVKPTVTADVRKQCCQ
For the molecule B1, the other: myc/FLAG ratio with Spn-F-FLAG, Q9V9Y9 turned out to be 1.07.
